Our source for the Kd, koff and kon values is patent publication US20100260668A1 (published 2010).

B1: DVD471 (bispecific antibody, human IgG1, kappa, L234A L235A)
heavy: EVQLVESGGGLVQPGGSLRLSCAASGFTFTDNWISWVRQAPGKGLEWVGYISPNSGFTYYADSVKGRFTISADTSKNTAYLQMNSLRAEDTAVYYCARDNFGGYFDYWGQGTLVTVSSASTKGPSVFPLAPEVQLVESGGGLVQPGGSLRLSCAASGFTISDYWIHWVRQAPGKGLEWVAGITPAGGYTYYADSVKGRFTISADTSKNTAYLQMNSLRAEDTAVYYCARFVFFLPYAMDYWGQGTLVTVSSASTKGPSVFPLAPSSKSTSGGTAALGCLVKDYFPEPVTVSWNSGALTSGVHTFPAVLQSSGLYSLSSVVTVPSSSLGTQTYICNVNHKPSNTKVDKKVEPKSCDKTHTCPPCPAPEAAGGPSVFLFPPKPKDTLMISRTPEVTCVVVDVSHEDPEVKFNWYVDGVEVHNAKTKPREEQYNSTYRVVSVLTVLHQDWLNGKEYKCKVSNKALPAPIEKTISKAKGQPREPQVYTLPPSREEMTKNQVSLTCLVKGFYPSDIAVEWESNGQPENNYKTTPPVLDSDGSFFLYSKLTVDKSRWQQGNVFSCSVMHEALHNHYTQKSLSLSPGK
light: DIQMTQSPSSLSASVGDRVTITCRASQDVSTAVAWYQQKPGKAPKLLIYSASFLYSGVPSRFSGSGSGTDFTLTISSLQPEDFATTYYCQQSYTGTVTFGQGTKVEIKRTVAAPSVFIFPPDIQMTQSPSSLSASVGDRVTITCRASQDVSTAVAWYQQKPGKAPKLLIYSASFLYSGVPSRFSGSGSGTDFTLTISSLQPEDFATYYCQQSYTTPPTFGQGTKVEIKRTVAAPSVFIFPPSDEQLKSGTASVVCLLNNFYPREAKVQWKVDNALQSGNSQESVTEQDSKDSTYSLSSTLTLSKADYEKHKVYACEVTHQGLSSPVTKSFNRGEC
notes: DVD-Ig; N-term; VD AB015 (DLL4), C-term; VD AB070 (VEGF); HC linker long, LC linker long; also called DVD471H; DVD471L
B2: DVD483 (bispecific antibody, human IgG1, kappa)
heavy: not shown
light: B1 light
notes: DVD-Ig; N-term; VD AB015 (DLL4), C-term; VD AB070 (VEGF); HC linker short, LC linker long; also called DVD483H; DVD483L
B3: DVD516 (bispecific antibody, human IgG1, lambda)
heavy: not shown
light: DIQMTQSPSSLSASVGDRVTITCRASQVIRRSLAWYQQKPGKAPKLLIYAASNLASGVPSRFSGSGSGTDFTLTISSLQPEDFATYYCQQSNTSPLTFGQGTKVEIKRTVAAPQAVVTQESALTTSPGETVTLTCRSSTGAVTTSNYANWVQEKPDHLFTGLIGGTNNRAPGVPARFSGSLIGDKAALTITGAQTEDEAIYFCALWYSNHWVFGGGTKLTVLGQPKAAPSVTLFPPSSEELQANKATLVCLISDFYPGAVTVAWKADSSPVKAGVETTTPSKQSNNKYAASSYLSLTPEQWKSHRSYSCQVTHEGSTVEKTVAPTECS
notes: DVD-Ig; N-term; VD AB071 (VEGF), C-term; VD AB073 (DLL4); HC linker short, LC linker short; also called DVD516H; DVD516L
B4: DVD528 (bispecific antibody, human IgG1, lambda)
heavy: not shown
light: B3 light
notes: DVD-Ig; N-term; VD AB071 (VEGF), C-term; VD AB073 (DLL4); HC linker long, LC linker short; also called DVD528H; DVD528L
B5: DVD465 (bispecific antibody, human IgG1, kappa)
heavy: not shown
light: DIQMTQSPSSLSASVGDRVTITCRASQDVSTAVAWYQQKPGKAPKLLIYSASFLYSGVPSRFSGSGSGTDFTLTISSLQPEDFATTYYCQQSYTGTVTFGQGTKVEIKRTVAAPDIQMTQSPSSLSASVGDRVTITCRASQDVSTAVAWYQQKPGKAPKLLIYSASFLYSGVPSRFSGSGSGTDFTLTISSLQPEDFATYYCQQSYTTPPTFGQGTKVEIKRTVAAPSVFIFPPSDEQLKSGTASVVCLLNNFYPREAKVQWKVDNALQSGNSQESVTEQDSKDSTYSLSSTLTLSKADYEKHKVYACEVTHQGLSSPVTKSFNRGEC
notes: DVD-Ig; N-term; VD AB015 (DLL4), C-term; VD AB070 (VEGF); HC linker short, LC linker short; also called DVD465H; DVD465L
B6: DVD477 (bispecific antibody, human IgG1, kappa, L234A L235A)
heavy: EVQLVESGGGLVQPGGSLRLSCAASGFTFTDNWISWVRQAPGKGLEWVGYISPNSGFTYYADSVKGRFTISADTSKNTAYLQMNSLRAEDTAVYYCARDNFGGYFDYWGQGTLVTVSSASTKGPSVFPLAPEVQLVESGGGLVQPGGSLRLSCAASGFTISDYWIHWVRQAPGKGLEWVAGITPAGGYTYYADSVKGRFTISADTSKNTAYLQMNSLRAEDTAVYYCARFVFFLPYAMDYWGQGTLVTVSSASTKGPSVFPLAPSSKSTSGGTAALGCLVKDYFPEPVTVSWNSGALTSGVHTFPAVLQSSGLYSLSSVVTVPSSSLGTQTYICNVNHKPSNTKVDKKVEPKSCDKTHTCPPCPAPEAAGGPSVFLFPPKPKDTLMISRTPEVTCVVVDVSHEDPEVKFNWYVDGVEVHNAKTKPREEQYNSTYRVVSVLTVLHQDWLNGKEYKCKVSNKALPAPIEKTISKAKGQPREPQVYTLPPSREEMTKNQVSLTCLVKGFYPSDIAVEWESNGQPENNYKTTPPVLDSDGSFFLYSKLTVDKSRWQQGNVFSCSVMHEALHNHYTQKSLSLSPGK
light: B5 light
notes: DVD-Ig; N-term; VD AB015 (DLL4), C-term; VD AB070 (VEGF); HC linker long, LC linker short; also called DVD477H; DVD477L
B7: DVD492 (bispecific antibody, human IgG1, kappa)
heavy: not shown
light: DIQMTQSPSSLSASVGDRVTITCRASQVIRRSLAWYQQKPGKAPKLLIYAASNLASGVPSRFSGSGSGTDFTLTISSLQPEDFATYYCQQSNTSPLTFGQGTKVEIKRTVAAPDIQMTQSSSYLSVSLGGRVTITCKASDHINNWLAWYQQKPGNAPRLLISGATSLETGVPSRFSGSGSGKDYTLSITSLQTEDVATYYCQQYWSIPLTFGAGTKLELKRTVAAPSVFIFPPSDEQLKSGTASVVCLLNNFYPREAKVQWKVDNALQSGNSQESVTEQDSKDSTYSLSSTLTLSKADYEKHKVYACEVTHQGLSSPVTKSFNRGEC
notes: DVD-Ig; N-term; VD AB071 (VEGF), C-term; VD AB072 (DLL4); HC linker short, LC linker short; also called DVD492H; DVD492L
B8: DVD504 (bispecific antibody, human IgG1, kappa)
heavy: not shown
light: B7 light
notes: DVD-Ig; N-term; VD AB071 (VEGF), C-term; VD AB072 (DLL4); HC linker long, LC linker short; also called DVD504H; DVD504L
B9: DVD464 (bispecific antibody, human IgG1, kappa)
heavy: not shown
light: DIQMTQSPSSLSASVGDRVTITCRASQVIRRSLAWYQQKPGKAPKLLIYAASNLASGVPSRFSGSGSGTDFTLTISSLQPEDFATYYCQQSNTSPLTFGQGTKVEIKRTVAAPSVFIFPPDIVMTQSPDSLAVSLGERATISCRASESVDNYGISFMKWFQQKPGQPPKLLIYAASNQGSGVPDRFSGSGSGTDFTLTISSLQAEDVAVYYCQQSKEVPWTFGGGTKVEIKRTVAAPSVFIFPPSDEQLKSGTASVVCLLNNFYPREAKVQWKVDNALQSGNSQESVTEQDSKDSTYSLSSTLTLSKADYEKHKVYACEVTHQGLSSPVTKSFNRGEC
notes: DVD-Ig; N-term; VD AB071 (VEGF), C-term; VD AB069 (DLL4); HC linker short, LC linker long; also called DVD464H; DVD464L
B10: DVD443 (bispecific antibody, human IgG1, kappa)
heavy: not shown
light: DIVMTQSPDSLAVSLGERATISCRASESVDNYGISFMKWFQQKPGQPPKLLIYAASNQGSGVPDRFSGSGSGTDFTLTISSLQAEDVAVYYCQQSKEVPWTFGGGTKVEIKRTVAAPDIQMTQSPSSLSASVGDRVTITCRASQDVSTAVAWYQQKPGKAPKLLIYSASFLYSGVPSRFSGSGSGTDFTLTISSLQPEDFATYYCQQSYTTPPTFGQGTKVEIKRTVAAPSVFIFPPSDEQLKSGTASVVCLLNNFYPREAKVQWKVDNALQSGNSQESVTEQDSKDSTYSLSSTLTLSKADYEKHKVYACEVTHQGLSSPVTKSFNRGEC
notes: DVD-Ig; N-term; VD AB069 (DLL4), C-term; VD AB070 (VEGF); HC linker short, LC linker short; also called DVD443H; DVD443L
B11: DVD522 (bispecific antibody, human IgG1, kappa, lambda, L234A L235A)
heavy: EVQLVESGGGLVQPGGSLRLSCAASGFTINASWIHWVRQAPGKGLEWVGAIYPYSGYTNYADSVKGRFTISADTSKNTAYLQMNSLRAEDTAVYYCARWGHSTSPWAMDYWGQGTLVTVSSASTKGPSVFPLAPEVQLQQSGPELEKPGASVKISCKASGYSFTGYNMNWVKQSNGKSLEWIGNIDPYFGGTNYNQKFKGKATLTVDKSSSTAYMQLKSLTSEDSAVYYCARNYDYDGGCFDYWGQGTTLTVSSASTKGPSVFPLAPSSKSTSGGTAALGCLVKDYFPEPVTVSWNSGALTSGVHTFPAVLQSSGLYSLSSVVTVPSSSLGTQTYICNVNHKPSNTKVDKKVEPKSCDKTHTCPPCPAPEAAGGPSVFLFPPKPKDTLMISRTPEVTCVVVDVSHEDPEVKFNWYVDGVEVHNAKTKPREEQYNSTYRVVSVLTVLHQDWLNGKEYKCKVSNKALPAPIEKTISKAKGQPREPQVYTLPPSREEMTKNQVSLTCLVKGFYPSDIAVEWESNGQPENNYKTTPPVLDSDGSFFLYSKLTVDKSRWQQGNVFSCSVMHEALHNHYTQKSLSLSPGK
light: DIQMTQSPSSLSASVGDRVTITCRASQVIRRSLAWYQQKPGKAPKLLIYAASNLASGVPSRFSGSGSGTDFTLTISSLQPEDFATYYCQQSNTSPLTFGQGTKVEIKRTVAAPSVFIFPPQAVVTQESALTTSPGETVTLTCRSSTGAVTTSNYANWVQEKPDHLFTGLIGGTNNRAPGVPARFSGSLIGDKAALTITGAQTEDEAIYFCALWYSNHWVFGGGTKLTVLGQPKAAPSVTLFPPSSEELQANKATLVCLISDFYPGAVTVAWKADSSPVKAGVETTTPSKQSNNKYAASSYLSLTPEQWKSHRSYSCQVTHEGSTVEKTVAPTECS
notes: DVD-Ig; N-term; VD AB071 (VEGF), C-term; VD AB073 (DLL4); HC linker long, LC linker long; also called DVD522H; DVD522L
B12: DVD534 (bispecific antibody, human IgG1, kappa, lambda, L234A L235A)
heavy: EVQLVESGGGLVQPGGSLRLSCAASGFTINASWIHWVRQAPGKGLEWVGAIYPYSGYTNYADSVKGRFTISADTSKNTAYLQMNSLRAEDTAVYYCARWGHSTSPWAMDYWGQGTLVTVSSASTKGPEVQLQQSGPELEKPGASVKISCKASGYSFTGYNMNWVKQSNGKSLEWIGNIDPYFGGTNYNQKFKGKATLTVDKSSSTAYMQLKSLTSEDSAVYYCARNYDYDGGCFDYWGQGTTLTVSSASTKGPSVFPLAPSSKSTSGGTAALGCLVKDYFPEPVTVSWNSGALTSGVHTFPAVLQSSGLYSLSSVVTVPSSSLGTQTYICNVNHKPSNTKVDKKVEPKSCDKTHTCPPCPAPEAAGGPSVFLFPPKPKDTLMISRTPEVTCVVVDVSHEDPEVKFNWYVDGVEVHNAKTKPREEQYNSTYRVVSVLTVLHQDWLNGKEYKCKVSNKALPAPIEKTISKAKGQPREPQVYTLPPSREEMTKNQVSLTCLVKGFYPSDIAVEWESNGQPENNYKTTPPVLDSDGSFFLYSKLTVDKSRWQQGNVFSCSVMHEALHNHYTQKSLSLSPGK
light: B11 light
notes: DVD-Ig; N-term; VD AB071 (VEGF), C-term; VD AB073 (DLL4); HC linker short, LC linker long; also called DVD534H; DVD534L
B13: DVD498 (bispecific antibody, human IgG1, kappa)
heavy: not shown
light: DIQMTQSPSSLSASVGDRVTITCRASQVIRRSLAWYQQKPGKAPKLLIYAASNLASGVPSRFSGSGSGTDFTLTISSLQPEDFATYYCQQSNTSPLTFGQGTKVEIKRTVAAPSVFIFPPDIQMTQSSSYLSVSLGGRVTITCKASDHINNWLAWYQQKPGNAPRLLISGATSLETGVPSRFSGSGSGKDYTLSITSLQTEDVATYYCQQYWSIPLTFGAGTKLELKRTVAAPSVFIFPPSDEQLKSGTASVVCLLNNFYPREAKVQWKVDNALQSGNSQESVTEQDSKDSTYSLSSTLTLSKADYEKHKVYACEVTHQGLSSPVTKSFNRGEC
notes: DVD-Ig; N-term; VD AB071 (VEGF), C-term; VD AB072 (DLL4); HC linker long, LC linker long; also called DVD498H; DVD498L
B14: DVD510 (bispecific antibody, human IgG1, kappa)
heavy: not shown
light: B13 light
notes: DVD-Ig; N-term; VD AB071 (VEGF), C-term; VD AB072 (DLL4); HC linker short, LC linker long; also called DVD510H; DVD510L

The target in the experiment is T1, VEGF (UniProt P15692-4 27-191).
T1 construct: Bought reagent; also called vascular endothelial growth factor
T1 sequence (P15692 other isoform, or with tags, fused parts or gaps limits assumed): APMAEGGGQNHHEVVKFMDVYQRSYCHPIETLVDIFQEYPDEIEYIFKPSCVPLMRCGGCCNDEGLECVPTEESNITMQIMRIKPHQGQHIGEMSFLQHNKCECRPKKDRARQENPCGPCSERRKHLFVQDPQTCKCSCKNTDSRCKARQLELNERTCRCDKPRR
Put plainly: SPR (Biacore), DVD-Ig captured, VEGF in solution. Background: In SPR one partner is held on a chip, and binding of the other changes the refractive index at the surface.
Broadly, the Kd is the equilibrium constant for the complex coming apart. What is called koff is the first-order rate constant of dissociation. For orientation: kon means the second-order rate constant of association. Lower therefore signals slower complex formation. In turn, B1 came in with a Kd of 0.917 nM, an off-rate constant (koff) of 0.000232 s⁻¹ and an on-rate constant (kon) of 253000 M⁻¹ s⁻¹.

B2 returned a Kd of 0.963 nM, a koff of 0.000872 s⁻¹ and a kon of 905000 M⁻¹ s⁻¹.

Consider B3, for which binding was characterised by a dissociation constant (Kd) of 0.781 nM, the koff was 0.00028 s⁻¹ and the kon is 358000 M⁻¹ s⁻¹.

Consider B4, for which binding was put at a Kd of 0.413 nM, the off-rate (koff) was found to be 0.00016 s⁻¹ and the kon is 388000 M⁻¹ s⁻¹.

With B5, binding was put at a Kd of 1.19 nM, the off-rate (koff) came to 0.000414 s⁻¹ and the association rate constant (kon) stood at 348000 M⁻¹ s⁻¹.

Take B6: the Kd is 1.02 nM, the koff was 0.000254 s⁻¹ and the association rate constant (kon) was 249000 M⁻¹ s⁻¹.

Turning to B7, the Kd was 0.0499 nM, the off-rate (koff) was determined as 7.6e-06 s⁻¹ and the on-rate (kon) came to 152000 M⁻¹ s⁻¹.

The molecule B8 yielded a Kd of 0.000941 nM, an off-rate constant (koff) of 1.52e-07 s⁻¹ and an on-rate constant (kon) of 162000 M⁻¹ s⁻¹.

In turn, B9 yielded a Kd of 0.00077 nM, a koff of 7.22e-08 s⁻¹ and a kon of 93700 M⁻¹ s⁻¹.

The molecule B10 displayed a dissociation constant (Kd) of 1.71 nM, a koff of 0.000267 s⁻¹ and an on-rate (kon) of 157000 M⁻¹ s⁻¹.

In turn, B11 gave a Kd of 0.45 nM, a koff of 0.00022 s⁻¹ and a kon of 489000 M⁻¹ s⁻¹.

The molecule B12 displayed a Kd of 0.449 nM, a koff of 0.000168 s⁻¹ and an association rate constant (kon) of 374000 M⁻¹ s⁻¹.

B13 displayed a Kd of 0.176 nM, a koff of 2.85e-05 s⁻¹ and a kon of 162000 M⁻¹ s⁻¹.

Molecule B14 returned a Kd of 0.0733 nM, an off-rate (koff) of 1.2e-05 s⁻¹ and a kon of 164000 M⁻¹ s⁻¹.
